Here are results for 4 sequences from the supplement of paper PMC5998384.

Data set [1] relates to HeLa Kyoto. Description: melting temperature (median over replicates), in situ; higher = more thermally stable.
In data set [2] the test system is HeLa Kyoto. The data set is described as follows: solubility in G1/S (NP-40 vs SDS abundance) (log2 ratio); higher = more soluble. Conditions: cell cycle stage: G1/S.
Data set [3] relates to HeLa Kyoto. Description: solubility change mitosis vs G1/S (difference of NP-40 vs SDS log2 ratios) (log2 ratio difference); higher = more soluble in mitosis.
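For melting temperature (median over replicates), in situ in this document: HeLa Kyoto cells synchronized by double thymidine or nocodazole block, proteins quantified by TMT10plex mass spectrometry, three independent biological replicates.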
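For solubility change mitosis vs G1/S (difference of NP-40 vs SDS log2 ratios) in this document: synchronized HeLa Kyoto cells (double thymidine block for G1/S, nocodazole release for mitosis), protein amounts in NP-40 versus SDS lysates quantified by mass spectrometry, three biological replicates.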
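For solubility in G1/S (NP-40 vs SDS abundance) in this document: HeLa Kyoto cells arrested at G1/S by double thymidine block, proteins quantified by TMT10plex mass spectrometry in mild NP-40 versus SDS extracts, three biological replicates.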

Turning to “MKTRQNKDSMSMRSGRKKEAPGPREELRSRGRASPGGVSTSSSDGKAEKSRQTAKKARVEEASTPKVNKQGRSEEISESESEETNAPKKTKTEQELPRPQSPSDLDSLDGRSLNDDGSSDPRDIDQDNRSTSPSIYSPGSVENDSDSSSGLSQGPARPYHPPPLFPPSPQPPDSTPRQPEASFEPHPSVTPTGYHAPMEPPTSRMFQAPPGAPPPHPQLYPGGTGGVLSGPPMGPKGGGAASSVGGPNGGKQHPPPTTPISVSSSGASGAPPTKPPTTPVGGGNLPSAPPPANFPHVTPNLPPPPALRPLNNASASPPGLGAQPLPGHLPSPHAMGQGMGGLPPGPEKGPTLAPSPHSLPPASSSAPAPPMRFPYSSSSSSSAAASSSSSSSSSSASPFPASQALPSYPHSFPPPTSLSVSNQPPKYTQPSLPSQAVWSQGPPPPPPYGRLLANSNAHPGPFPPSTGAQSTAHPPVSTHHHHHQQQQQQQQQQQQQQQQQQQHHGNSGPPPPGAFPHPLEGGSSHHAHPYAMSPSLGSLRPYPPGPAHLPPPHSQVSYSQAGPNGPPVSSSSNSSSSTSQGSYPCSHPSPSQGPQGAPYPFPPVPTVTTSSATLSTVIATVASSPAGYKTASPPGPPPYGKRAPSPGAYKTATPPGYKPGSPPSFRTGTPPGYRGTSPPAGPGTFKPGSPTVGPGPLPPAGPSGLPSLPPPPAAPASGPPLSATQIKQEPAEEYETPESPVPPARSPSPPPKVVDVPSHASQSARFNKHLDRGFNSCARSDLYFVPLEGSKLAKKRADLVEKVRREAEQRAREEKEREREREREKEREREKERELERSVKLAQEGRAPVECPSLGPVPHRPPFEPGSAVATVPPYLGPDTPALRTLSEYARPHVMSPGNRNHPFYVPLGAVDPGLLGYNVPALYSSDPAAREREREARERDLRDRLKPGFEVKPSELEPLHGVPGPGLDPFPRHGGLALQPGPPGLHPFPFHPSLGPLERERLALAAGPALRPDMSYAERLAAERQHAERVAALGNDPLARLQMLNVTPHHHQHSHIHSHLHLHQQDAIHAASASVHPLIDPLASGSHLTRIPYPAGTLPNPLLPHPLHENEVLRHQLFAAPYRDLPASLSAPMSAAHQLQAMHAQSAELQRLALEQQQWLHAHHPLHSVPLPAQEDYYSHLKKESDKPL [ATN1]”, the melting temperature in the data set with HeLa Kyoto [1] (cell cycle stage: G1/S) is 53.9 °C; with HeLa Kyoto [1] (cell cycle stage: mitosis), 57 °C. For the same sequence, the “solubility in G1/S (log2)” value in the data set on HeLa Kyoto [2] stood at 0.377. In addition, the “solubility change mitosis (log2)” value in the data set on HeLa Kyoto [3] is 0.405.

Regarding “MLAYCVQDATVVDVEKRRNPSKHYVYIINVTWSDSTSQTIYRRYSKFFDLQMQLLDKFPIEGGQKDPKQRIIPFLPGKILFRRSHIRDVAVKRLKPIDEYCRALVRLPPHISQCDEVFRFFEARPEDVNPPKEDYGSSKRKSVWLSSWAESPKKDVTGADATAEPMILEQYVVVSNYKKQENSELSLQAGEVVDVIEKNESGWWFVSTSEEQGWVPATYLEAQNGTRDDSDINTSKTGEVSKRRKAHLRRLDRRWTLGGMVNRQHSREEKYVTVQPYTSQSKDEIGFEKGVTVEVIRKNLEGWWYIRYLGKEGWAPASYLKKAKDDLPTRKKNLAGPVEIIGNIMEISNLLNKKASGDKETPPAEGEGHEAPIAKKEISLPILCNASNGSAVGVPDRTVSRLAQGSPAVARIAPQRAQISSPNLRTRPPPRRESSLGFQLPKPPEPPSVEVEYYTIAEFQSCISDGISFRGGQKAEVIDKNSGGWWYVQIGEKEGWAPASYIDKRKKPNLSRRTSTLTRPKVPPPAPPSKPKEAEEGPTGASESQDSPRKLKYEEPEYDIPAFGFDSEPELSEEPVEDRASGERRPAQPHRPSPASSLQRARFKVGESSEDVALEEETIYENEGFRPYAEDTLSARGSSGDSDSPGSSSLSLTRKNSPKSGSPKSSSLLKLKAEKNAQAEMGKNHSSASFSSSITINTTCCSSSSSSSSSLSKTSGDLKPRSASDAGIRGTPKVRAKKDADANAGLTSCPRAKPSVRPKPFLNRAESQSQEKMDISTLRRQLRPTGQLRGGLKGSKSEDSELPPQTASEAPSEGSRRSSSDLITLPATTPPCPTKKEWEGPATSYMTCSAYQKVQDSEISFPAGVEVQVLEKQESGWWYVRFGELEGWAPSHYLVLDENEQPDPSGKELDTVPAKGRQNEGKSDSLEKIERRVQALNTVNQSKKATPPIPSKPPGGFGKTSGTPAVKMRNGVRQVAVRPQSVFVSPPPKDNNLSCALRRNESLTATDGLRGVRRNSSFSTARSAAAEAKGRLAERAASQGSDSPLLPAQRNSIPVSPVRPKPIEKSQFIHNNLKDVYVSIADYEGDEETAGFQEGVSMEVLERNPNGWWYCQILDGVKPFKGWVPSNYLEKKN [SH3PXD2A]”, the melting temperature in the data set on HeLa Kyoto [1] (cell cycle stage: G1/S) worked out at 49.5 °C; in the data set with HeLa Kyoto [1] (cell cycle stage: mitosis) it was 49 °C. In addition, the “solubility in G1/S (log2)” value in the data set on HeLa Kyoto [2] was determined as 0.0755. Also, the “solubility change mitosis (log2)” value in the data set on HeLa Kyoto [3] came out at 0.1.

On to “MLDHKDLEAEIHPLKNEERKSQENLGNPSKNEDNVKSAPPQSRLSRCRAAAFFLSLFLCLFVVFVVSFVIPCPDRPASQRMWRIDYSAAVIYDFLAVDDINGDRIQDVLFLYKNTNSSNNFSRSCVDEGFSSPCTFAAAVSGANGSTLWERPVAQDVALVECAVPQPRGSEAPSACILVGRPSSFIAVNLFTGETLWNHSSSFSGNASILSPLLQVPDVDGDGAPDLLVLTQEREEVSGHLYSGSTGHQIGLRGSLGVDGESGFLLHVTRTGAHYILFPCASSLCGCSVKGLYEKVTGSGGPFKSDPHWESMLNATTRRMLSHSSGAVRYLMHVPGNAGADVLLVGSEAFVLLDGQELTPRWTPKAAHVLRKPIFGRYKPDTLAVAVENGTGTDRQILFLDLGTGAVLCSLALPSLPGGPLSASLPTADHRSAFFFWGLHELGSTSETETGEARHSLYMFHPTLPRVLLELANVSTHIVAFDAVLFEPSRHAAYILLTGPADSEAPGLVSVIKHKVRDLVPSSRVVRLGEGGPDSDQAIRDRFSRLRYQSEA [ITFG3]”, for which the figures for the melting temperature in the data set on HeLa Kyoto [1] (cell cycle stage: G1/S) and with HeLa Kyoto [1] (cell cycle stage: mitosis) were 57.6 °C and 57.1 °C, respectively. Also, the “solubility in G1/S (log2)” value in the data set on HeLa Kyoto [2] is 0.275. Also, the “solubility change mitosis (log2)” value with HeLa Kyoto [3] worked out at 0.0404.

With “MLRRVTVAAVCATRRKLCEAGRELAALWGIETRGRCEDSAAARPFPILAMPGRNKAKSTCSCPDLQPNGQDLGENSRVARLGADESEEEGRRGSLSNAGDPEIVKSPSDPKQYRYIKLQNGLQALLISDLSNMEGKTGNTTDDEEEEEVEEEEEDDDEDSGAEIEDDDEEGFDDEDEFDDEHDDDLDTEDNELEELEERAEARKKTTEKQSAAALCVGVGSFADPDDLPGLAHFLEHMVFMGSLKYPDENGFDAFLKKHGGSDNASTDCERTVFQFDVQRKYFKEALDRWAQFFIHPLMIRDAIDREVEAVDSEYQLARPSDANRKEMLFGSLARPGHPMGKFFWGNAETLKHEPRKNNIDTHARLREFWMRYYSSHYMTLVVQSKETLDTLEKWVTEIFSQIPNNGLPRPNFGHLTDPFDTPAFNKLYRVVPIRKIHALTITWALPPQQQHYRVKPLHYISWLVGHEGKGSILSFLRKKCWALALFGGNGETGFEQNSTYSVFSISITLTDEGYEHFYEVAYTVFQYLKMLQKLGPEKRIFEEIRKIEDNEFHYQEQTDPVEYVENMCENMQLYPLQDILTGDQLLFEYKPEVIGEALNQLVPQKANLVLLSGANEGKCDLKEKWFGTQYSIEDIENSWAELWNSNFELNPDLHLPAENKYIATDFTLKAFDCPETEYPVKIVNTPQGCLWYKKDNKFKIPKAYIRFHLISPLIQKSAANVVLFDIFVNILTHNLAEPAYEADVAQLEYKLVAGEHGLIIRVKGFNHKLPLLFQLIIDYLAEFNSTPAVFTMITEQLKKTYFNILIKPETLAKDVRLLILEYARWSMIDKYQALMDGLSLESLLSFVKEFKSQLFVEGLVQGNVTSTESMDFLKYVVDKLNFKPLEQEMPVQFQVVELPSGHHLCKVKALNKGDANSEVTVYYQSGTRSLREYTLMELLVMHMEEPCFDFLRTKQTLGYHVYPTCRNTSGILGFSVTVGTQATKYNSEVVDKKIEEFLSSFEEKIENLTEEAFNTQVTALIKLKECEDTHLGEEVDRNWNEVVTQQYLFDRLAHEIEALKSFSKSDLVNWFKAHRGPGSKMLSVHVVGYGKYELEEDGTPSSEDSNSSCEVMQLTYLPTSPLLADCIIPITDIRAFTTTLNLLPYHKIVK [NRD1]”, the melting temperature came out at 50.5 °C in the data set with HeLa Kyoto [1] (cell cycle stage: G1/S) and 50.9 °C with HeLa Kyoto [1] (cell cycle stage: mitosis). In addition, the “solubility in G1/S (log2)” value in the data set on HeLa Kyoto [2] was 0.116. For the same sequence, the “solubility change mitosis (log2)” value with HeLa Kyoto [3] was -0.188.
